Reference: the supplement of paper PMC10567573

B1: ANKRD17 (parent)
chain: EMVRFLLEAGADQEHKTDEMHTAL

Variants of: B1
Assay: protein stability index of a GFP-peptide fusion (GPS, HEK-293T) (PSI 1-6); higher = more stable
Details: c terminus: a fixed tail appended
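Further: lentivirally expressed fusions sorted by FACS into six bins by GFP to DsRed ratio, PSI derived from sequencing read proportions per bin multiplied by bin number.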

Protein stability index: each site, then its substitutions
D18: R 2.1 | H 2.01 | Q 2.67 | A 2.31 | K 2.47 | W 2.44 | E 3.16 | I 2.64 | S 2.73 | Y 1.44 | M 2.1 | F 1.34 | V 1.6 | N 2.51 | P 2.35 | G 2.26 | T 2.42 | C 2.01 | L 1.7
K16: E 2.68 | D 3.54 | A 3.16 | C 2.56 | S 2.91 | I 2.72 | R 2.51 | W 1.88 | P 2.45 | Y 2.22 | V 3.18 | F 3 | G 2.56 | L 3.11 | H 2.87 | T 3.44 | M 3.06 | N 3.29 | Q 2.53
Q13: N 2.86 | G 2.78 | M 2.25 | W 2.27 | F 2.11 | K 2.92 | Y 1.87 | C 3.28 | R 2.22 | T 3.83 | L 2.03 | D 3.77 | P 2.67 | V 2.69 | E 2.79 | H 2.46 | A 2.65 | S 2.94 | I 2.36
D12: S 2.29 | G 1.96 | H 1.94 | W 1.43 | R 2.05 | E 2.76 | F 1.66 | Y 1.89 | A 2.38 | V 2.05 | K 2.69 | N 2.17 | T 2.21 | L 1.09 | P 2.25 | M 2.07 | Q 2.66 | C 1.44 | I 1.62
T17: A 2.45 | E 2.99 | N 2.21 | C 2.5 | K 3.12 | W 2.19 | Q 2.54 | H 2.55 | P 3.17 | D 3.12 | G 2.94 | F 2.15 | V 2.37 | Y 2.33 | S 2.76 | M 2.71 | I 2.16 | R 2.68 | L 2.22
G10: Y 1.72 | T 2.27 | S 2.03 | P 3.73 | V 2.07 | M 2.05 | R 1.67 | Q 2.57 | N 2.82 | L 1.95 | W 2.2
H15: F 1.94 | K 2.92 | N 3.21 | C 3.16 | M 2.42 | P 2.33 | T 3.02 | R 2.44 | L 2.71 | V 2.69 | D 3.33 | S 2.79 | I 2.56 | Y 1.97 | Q 3 | E 3.04 | G 2.73 | W 1.72 | A 2.76
A11: N 3.29 | E 2.68 | K 2.64 | H 3.22 | V 2.94 | D 3.21 | I 2.29 | M 1.87 | G 3.45 | R 3.02 | Y 2.01 | W 2.22 | L 2.04 | P 3.73 | F 1.83 | C 2.57 | S 3.1 | T 3.53 | Q 2.58
E19: A 2.33 | D 2.28 | F 1.97 | C 1.54
E14: V 1.82 | K 2.76 | G 2.63 | S 2.15 | P 1.9 | M 2.72 | C 1.5 | Q 2.46 | I 1.28 | L 1.79 | H 2.01 | Y 1.44 | W 1.67 | R 1.95 | N 1.95 | F 1.9 | D 2.61 | T 2.04 | A 1.69
